Experimental data: paper PMC5506036, “SmMYB36, a Novel R2R3-MYB Transcription Factor, Enhances Tanshinone Accumulation and Decreases Phenolic Acid Content in Salvia miltiorrhiza Hairy Roots”

T1: SmMYB36 (Salvia miltiorrhiza, UniProt A0A059PRJ2 1-160)
T1 sequence: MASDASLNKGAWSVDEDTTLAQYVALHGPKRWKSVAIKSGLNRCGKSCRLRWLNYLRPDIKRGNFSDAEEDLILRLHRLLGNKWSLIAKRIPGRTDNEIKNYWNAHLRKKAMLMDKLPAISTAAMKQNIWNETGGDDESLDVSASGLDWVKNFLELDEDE

B1: HMGS1-MBS3 (dsDNA)
DNA 1: GTGTGTGCTGTTTAACTGATCCGCTATTTC
DNA 2: GAAATAGCGGATCAGTTAAACAGCACACAC
B2: GGPPS1-MBS2 (dsDNA)
DNA 1: TTAAAATCGTTACGGTCATACCACGGAAAC
DNA 2: GTTTCCGTGGTATGACCGTAACGATTTTAA
B3: 4CL2-MRE (dsDNA)
DNA 1: TTTGTAGAGTTGAACCTAAAGATGATGGGTG
DNA 2: CACCCATCATCTTTAGGTTCAACTCTACAAA
B4: MBS1 core (dsDNA)
DNA 1: CAACTG
DNA 2: CAGTTG
B5: HPPR-MRE-1 (dsDNA)
DNA 1: TTTTGTGGGACAAACCTAAAAAGAAACTGAA
DNA 2: TTCAGTTTCTTTTTAGGTTTGTCCCACAAAA
B6: IPPI-MBS1 (dsDNA)
DNA 1: CCGCCGCCGCCACAACTGTAATGGTGCTTT
DNA 2: AAAGCACCATTACAGTTGTGGCGGCGGCGG
B7: C4H1-MBS3 (dsDNA)
DNA 1: GTTTAAAAGACATAACTGAGTTATCGAACA
DNA 2: TGTTCGATAACTCAGTTATGTCTTTTAAAC
B8: DXR-MRE (dsDNA)
DNA 1: CCCCTTTTACAAAACCTAATTTCCCCCCAT
DNA 2: ATGGGGGGAAATTAGGTTTTGTAAAAGGGG
B9: MBSI-1 core (dsDNA)
DNA 1: AAAAAACCGTTA
DNA 2: TAACGGTTTTTT
B10: GGPPS1-MRE (dsDNA)
DNA 1: TTTTTCGATAGTAACCTAATTTTCTGTAGTG
DNA 2: CACTACAGAAAATTAGGTTACTATCGAAAAA
B11: C4H1-MBS1 (dsDNA)
DNA 1: TCTTTAAAACTCCAACTGATATGATGTTCG
DNA 2: CGAACATCATATCAGTTGGAGTTTTAAAGA
B12: MCT-MBS2-1 (dsDNA)
DNA 1: AGGAAACCCTCACGGTCACCTTAACATTCA
DNA 2: TGAATGTTAAGGTGACCGTGAGGGTTTCCT
B13: MBSI-2 core (dsDNA)
DNA 1: AAAAAACGGTTA
DNA 2: TAACCGTTTTTT
B14: MCT-MBS3-2 (dsDNA)
DNA 1: AACTAGATGAATTAACTGGTAGCAATTACC
DNA 2: GGTAATTGCTACCAGTTAATTCATCTAGTT
B15: HPPR-MRE-2 (dsDNA)
DNA 1: AATGATTGATTTAACCTAATCATTGTGAAACC
DNA 2: GGTTTCACAATGATTAGGTTAAATCAATCATT
B16: MBSII core (dsDNA)
DNA 1: AAAAGTTAGTTA
DNA 2: TAACTAACTTTT
B17: MCT-MBS3-1 (dsDNA)
DNA 1: TATCATCTTCGGTAACTGATACTCAAGGAT
DNA 2: ATCCTTGAGTATCAGTTACCGAAGATGATA
B18: MCT-MBS2-2 (dsDNA)
DNA 1: AAAACAGGCATCCGGTCAGTAAGTCCGCAT
DNA 2: ATGCGGACTTACTGACCGGATGCCTGTTTT

target: T1, SmMYB36; assay: EMSA; Invitrogen EMSA kit, probe:protein mass ratio 1:15, 10 µL; protein eluted in 50 mM NaH2PO4, 300 mM NaCl, 250 mM imidazole pH 8.0; binding buffer and temperature not given; settings: protein: recombinant; tags: His (pET32a fusion); blunt

Binding result, binds:
B1
B2
B3
B4
B5
B6
B7
B8
B9
B10
B11
B12
B13
B14
B15
B16
B17
B18
